Measured values reported in patent US20260001953A1 (TWIST BIOSCIENCE, published 2026).

Assays:
[1] = target: Sialic acid-binding immunoglobulin-like lectin 8 (SIGLEC-8), antigen of the Carterra SPR studies (UniProt Q9NYZ4 17-363, limits assumed); assay: Carterra SPR
How it was run: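 Antibodies came from synthetic antibody libraries, panned over four rounds with a bead-based strategy and screened by clonal ELISA. Chosen clones were expressed and purified before testing. Their binding kinetics to SIGLEC-8 were then measured by surface plasmon resonance on a Carterra instrument, giving rate constants and dissociation constants.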

[2] = target: T1, SIGLEC-8 transiently expressed on cells (UniProt Q9NYZ4 17-499, limits assumed); assay: cell binding titration, transient SIGLEC-8 line
T1 construct: whole, on cells; Two cassettes are described (P2A mVenus and direct mVenus fusion); also called the transient line; pTT5-SIGLEC-8 P2A mVenus
T1 sequence (Q9NYZ4 17-499 limits assumed): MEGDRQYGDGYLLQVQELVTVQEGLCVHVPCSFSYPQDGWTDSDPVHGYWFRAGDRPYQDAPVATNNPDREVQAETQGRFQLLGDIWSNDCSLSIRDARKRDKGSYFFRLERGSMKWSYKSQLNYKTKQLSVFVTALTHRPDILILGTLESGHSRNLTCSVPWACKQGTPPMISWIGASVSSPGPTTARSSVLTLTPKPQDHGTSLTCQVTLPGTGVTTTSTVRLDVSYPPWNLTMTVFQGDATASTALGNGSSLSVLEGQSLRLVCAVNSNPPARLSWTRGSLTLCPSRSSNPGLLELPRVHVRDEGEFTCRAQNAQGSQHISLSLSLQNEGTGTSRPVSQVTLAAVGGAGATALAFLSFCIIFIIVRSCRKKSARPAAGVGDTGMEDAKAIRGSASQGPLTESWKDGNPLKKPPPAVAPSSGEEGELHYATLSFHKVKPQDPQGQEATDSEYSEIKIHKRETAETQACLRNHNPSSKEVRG

Sialic acid-binding immunoglobulin-like lectin 8 (SIGLEC-8), antigen of the Carterra SPR studies, sequence (Q9NYZ4 17-363 limits assumed): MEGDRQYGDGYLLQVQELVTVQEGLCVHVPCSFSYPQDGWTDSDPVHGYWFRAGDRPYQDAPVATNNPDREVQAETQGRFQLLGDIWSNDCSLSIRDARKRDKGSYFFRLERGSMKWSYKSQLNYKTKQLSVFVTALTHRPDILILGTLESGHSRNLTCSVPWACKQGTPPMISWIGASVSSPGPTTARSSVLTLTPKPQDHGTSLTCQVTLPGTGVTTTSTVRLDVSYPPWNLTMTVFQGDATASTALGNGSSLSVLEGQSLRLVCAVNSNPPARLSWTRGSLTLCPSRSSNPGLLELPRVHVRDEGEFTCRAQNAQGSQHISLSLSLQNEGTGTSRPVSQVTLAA

Kd [1] | EC50 [2] | binding result [1] | Binder
1.21 nM | 1.15 nM |  | SIGLEC-8-50 (antibody, human IgG1, kappa, V domains shown, tested as expressed and purified mAb) VH: EVQLLESGGGLVQPGGSLRLSCAASGFTLSNYAMTWVRQAPGKGLEWVSTVSGSGASTYYADSVKGRFTISRDNSKNTLYLQMNSLRAEDTAVYYCAREDSGKYLSLDYWGQGTLVTVSS VL: DIQMTQSPSSLSASVGDRVTITCRASQSIGSYLNWYQQKPGKAPKLLIYSASSLQTGVPSRFSGSGSGTDFTLTISSLQPEDFATYYCQQTYNTPITFGGGTKVEIKR
65.4 nM | 20.8 nM |  | SIGLEC-8-14 (antibody, human IgG1, kappa, V domains shown, tested as expressed and purified mAb) VH: EVQLLESGGGLVQPGGSLRLSCAASGFSFSNHAMTWVRQAPGKGLEWVSGISGSSGSTYYADSVKGRFTISRDNSKNTLYLQMNSLRAEDTAVYYCAREGRVAAYFDSWGQGTLVTVSS VL: DIQMTQSPSSLSASVGDRVTITCRASQGISGYLNWYQQKPGKAPKLLIYGASRLQNGVPSRFSGSGSGTDFTLTISSLQPEDFATYYCQQSYTTPITFGGGTKVEIKR
4.68 nM | 2.43 nM |  | SIGLEC-8-6 (antibody, human IgG1, kappa, V domains shown, tested as expressed and purified mAb) VH: EVQLLESGGGLVQPGGSLRLSCAASGFSFSSYGMSWVRQAPGKGLEWVSTISGSGGGTYYADSVKGRFTISRDNSKNTLYLQMNSLRAEDTAVYYCAREESGKYLSLDHWGQGTLVTVSS VL: DIQMTQSPSSLSASVGDRVTITCRASQTIRSYLNWYQQKPGKAPKLLIYAASSLHTGVPSRFSGSGSGTDFTLTISSLQPEDFATYYCQQSYTTPITFGGGTKVEIKR
50.6 nM | 7.63 nM |  | SIGLEC-8-25 (antibody, human IgG1, kappa, V domains shown, tested as expressed and purified mAb) VH: EVQLLESGGGLVQPGGSLRLSCAASGFTFSKYAMDWVRQAPGKGLEWVSDISGSGGTTYYADSVKGRFTISRDNSKNTLYLQMNSLRAEDTAVYYCVRAGLVGYDFDIWGQGTLVTVSS VL: DIQMTQSPSSLSASVGDRVTITCRASESISSYLNWYQQKPGKAPKLLIYGASILQGGVPSRFSGSGSGTDFTLTISSLQPEDFATYYCQQSYSFPITFGGGTKVEIKR
3.49 nM | 1.02 nM |  | SIGLEC-8-28 (antibody, human IgG1, kappa, V domains shown, tested as expressed and purified mAb) VH: EVQLLESGGGLVQPGGSLRLSCAASGSPFSNYAMSWVRQAPGKGLEWVSSISGGGASTYYADSVKGRFTISRDNSKNTLYLQMNSLRAEDTAVYYCAREKDNSWFGMDVWGQGTLVTVSS VL: DIQMTQSPSSLSASVGDRVTITCRASQSIDRYLNWYQQKPGKAPKLLIYGASTLQTGVPSRFSGSGSGTDFTLTISSLQPEDFATYYCQQTYSTPITFGGGTKVEIKR
242 nM | 6.46 nM |  | SIGLEC-8-3 (antibody, human IgG1, kappa, V domains shown, tested as expressed and purified mAb) VH: EVQLLESGGGLVQPGGSLRLSCAASGFTFSTYDMTWVRQAPGKGLEWVSSIGGSGRSTYYADSVKGRFTISRDNSKNTLYLQMNSLRAEDTAVYYCARGSASAWFAFDYWGQGTLVTVSS VL: DIQMTQSPSSLSASVGDRVTITCRASQSIARYLNWYQQKPGKAPKLLIYGASDLQSGVPSRFSGSGSGTDFTLTISSLQPEDFATYYCQQSYRTSYTFGGGTKVEIKR
2.02 nM | 2.87 nM |  | SIGLEC-8-16 (antibody, human IgG1, kappa, V domains shown, tested as expressed and purified mAb) VH: EVQLLESGGGLVQPGGSLRLSCAASGFTFSDYGMSWVRQAPGKGLEWVLAISGSGATTYYADSVKGRFTISRDNSKNTLYLQMDSLRAEDTAVYYCAREGGSTYYSLDYWGQGTLVTVSS VL: DIQMTQSPSSLSASVGDRVTITCRTSQSIGSYLNWYQQKPGKAPKLLIYATSNLHSGVPSRFSGSGSGTDFTLTISSLQPEDFATYYCQQSYKTPYTFGGGTKVEIKR
8080 nM | 1590 nM |  | SIGLEC-8-9 (antibody, human IgG1, kappa, V domains shown, tested as expressed and purified mAb) VH: not shown VL: DIQMTQSPSSLSASVGDRVTITCRTSQTISTYLNWYQQKPGKAPKLLIYDASDLQSGVPSRFSGSGSGTDFTLTISSLQPEDFATYYCQQNYITPNTFGGGTKVEIKR
2.57 nM |  |  | SIGLEC-8-15 (antibody, human IgG1, kappa, V domains shown, tested as expressed and purified mAb) VH: EVQLLESGGGLVQPGGSLRLSCAASGFTFSTYTMNWVRQAPGKGLEWVSVISGSGDDTYYADSVKGRFTISRDNSKNTLYLQMNSLRAEDTAVYYCTRAGEQHHYYGMDVWGQGTLVTVSS VL: DIQMTQSPSSLSASVGDRVTITCRASQTISTSLNWYQQKPGKAPKLLIYGASTLQRGVPSRFSGSGSGTDFTLTISSLQPEDFATYYCRQSYSTPITFGGGTKVEIKR
88.8 nM | 1.4 nM |  | SIGLEC-8-49 (antibody, human IgG1, kappa, V domains shown, tested as expressed and purified mAb) VH: EVQLLESGGGLVQPGGSLRLSCAASGFTFSTYAMHWVRQAPGKGLEWVSTISASGGSTYYADSVKGRFTISRDNSKNTLYLQMNSLRAEDTAVYYCAKSGGADYYYYGMDVWGQGTLVTVSS VL: DIQMTQSPSSLSASVGDRVTITCRASQSIGYYLNWYQQKPGKAPKLLIYGTSSLQSGVPSRFSGSGSGTDFTLTISSLQPEDFATYYCQQSYSTPLNFGGGTKVEIKR
160000 nM | 8.28 nM |  | SIGLEC-8-2 (antibody, human IgG1, kappa, V domains shown, tested as expressed and purified mAb) VH: EVQLLESGGGLVQPGGSLRLSCAASGFTFSKHAMSWVRQAPGKGLEWVSGISGSGARTYYADSVKGRFTISRDNSKNTLYLQMNSLRAEDTAVYYCARQSRGGSLGMDVWGQGTLVTVSS VL: DIQMTQSPSSLSASVGDRVTITCRASQRISSYLNWYQQKPGKAPKLLIYGASILQTGVPSRFSGSGSGTDFTLTINSLQPEDFATYYCQESYSTPFTFGGGTKVEIKR
159 nM | 4.47 nM |  | SIGLEC-8-39 (antibody, human IgG1, kappa, V domains shown, tested as expressed and purified mAb) VH: EVQLLESGGGLVQPGGSLRLSCAASGFTFSRYGMSWVRQAPGKGLEWVSATSGSGGTTYYADSVKGRFTISRDNSKNTLYLQMNSLRAEDTAVYYCARVGGSGWYPNDYWGQGTLVTVSS VL: DIQMTQSPSSLSASVGDRVTITCRASQSVSRFLNWYQQKPGKAPKLLIYGASTLQTGVPSRFSGSGSGTDFTLTISSLQPEDFATYYCQQSYTTPHTFGGGTKVEIKR
10 nM |  |  | SIGLEC-8-51 (antibody, human IgG1, kappa, V domains shown, tested as expressed and purified mAb) VH: EVQLLESGGGLVQPGGSLRLSCAASGFTFPRYGMSWVRQAPGKGLEWVTATSGSGGTTYYADSVKGRFTISRDNSKNTLYLQMNSLRAEDTAVYYCARDESSGWYPKDYWGQGTLVTVSS VL: DIQMTQSPSSLSASVGDRVTITCRASQSVSRFLNWYQQKPGKAPKLLIYGASNLEGGVPSRFSGSGSGTDFTLTISSLQPEDFATYYCQQSYTTPHTFGGGTKVEIKR
2.5 nM | 133 nM |  | SIGLEC-8-33 (antibody, human IgG1, kappa, V domains shown, tested as expressed and purified mAb) VH: EVQLLESGGGLVQPGGSLRLSCAASGFAFSDYAMSWVRQAPGKGLEWVSAITGSGDYTYYADSVKGRFTISRDNSKNTLYLQMNSLRAEDTAVYYCARDTGGMDVWGQGTLVTVSS VL: DIQMTQSTSSLSASVGDRVTITCRASQSIHSYLNWYQQKPGKAPILIYAASSLERGVPSRFSGSGSGTDFTLTISSLQPEDFATYYCQQSYITPYSFGGGTKVEIKR
326 nM | 355 nM |  | SIGLEC-8-29 (antibody, human IgG1, kappa, V domains shown, tested as expressed and purified mAb) VH: EVQLLESGGGLVQPGGSLRLSCAASGFTFSRHAMTWVRQAPGKGLEWVSAISSSGDNTYYVDSVKGRYTISRDNSKNTLYLQMNSLRAEDTAVYYCARIHRNGHAFDIWGQGTLVTVSS VL: DIQMTQSPSSLSASVGDRVTITCRASQSIHTYLNWYQQKPGKAPKLLIYGASTLRSGVPSRFSGSGSGTDFTLTISSLQPEDFATYYCQQSYSTPLLTFGGGTKVEIKR
 | 50.7 nM | no binding | SIGLEC-8-13 (antibody, human IgG1, kappa, V domains shown, tested as expressed and purified mAb) VH: EVQLLESGGGLVQPGGSLRLSCAASGFTFSSYDMNWVRQAPGKGLEWVSAISGSGVGTYYADSVKGRFTISRDNSKNTLYLQMNSLRAEDTAVYYCSKDVRWSPGGMDVWGQGTLVTVSS VL: DIQMTQSPSSLSASVGDRVTITCRASQSVSIYLNWYQQKPGKAPKLLIYATSNLHSGVPSRFSGSGSGTDFTLTISSLQPEDFATYYCQQSHSTPYTFGGGTKVEIKR
32.7 nM | 1.88 nM |  | SIGLEC-8-47 (antibody, human IgG1, kappa, V domains shown, tested as expressed and purified mAb) VH: EVQLLESGGGLVQPGGSLRLSCAASGFTFSTHAMSWVRQAPGKGLEWVSTISGSGDITYYADSVKGRFTISRDNSKNTLYLQMNSLRAEDTAVYYCARQSRGGSLGMDVWGQGTLVTVSS VL: DIQMTQSPSSLSASVGDRVTITCRASQTISRYLNWYQQKPGKAPKLLIYAASNLYSGVPSRFSGSGSGTDFTLTISSLQPEDFATYYCQQSFATPYTFGGGTKVEIKR
46200 nM | 10.6 nM |  | SIGLEC-8-38 (antibody, human IgG1, kappa, V domains shown, tested as expressed and purified mAb) VH: EVQLLESGGGLVQPGGSLRLSCAASGFTFSPYAMSWVRQAPGKGLEWVSGIGGSGGSTYYADSVKGRFTISRDNSKNTLYLQMNSLRAEDTAVYYCARDYGGYYFDYWGQGTLVTVSS VL: DIQMTQSPSSLSASVGDRVTITCRASQYISNYLNWYQQKPGKAPKLLIYATSTLESGVPSRFSGSGSGTDFTLTISSLQPEDFATYYCQQGYSVPWTFGGGTKVEIKR
10.1 nM | 0.855 nM |  | SIGLEC-8-23 (antibody, human IgG1, kappa, V domains shown, tested as expressed and purified mAb) VH: EVQLLESGGGLVQPGGSLRLSCAASGLTFSSYAMSWVRQAPGKGLEWVSAISGSGVGTYYADSVKGRFTISRDNSKNTLYLQMNSLRAEDTAVYYCAKHTSSSWYPLDYWGQGTLVTVSS VL: DIQMTQSPSSLSASVGDRVTITCRSSQSITTYLNWYQQKPGKAPKLLIYAASNLYSGVPSRFSGSGSGTDFTLTISSLQPEDFATYYCQQSHTTPLTFGGGTKVEIKR
152000 nM | 32.8 nM |  | SIGLEC-8-46 (antibody, human IgG1, kappa, V domains shown, tested as expressed and purified mAb) VH: EVQLLESGGGLVQPGGSLRLSCAASGLTFSRYAMSWVRQAPGKGLEWVSTVSGSGVSTYYADSVKGRFTISRDNSKNTLYLQMNSLRAEDTAVYYCARARGGSSRYYYGMDVWGQGTLVTVSS VL: DIQMTQSPSSLSASVGDRVTITCRASQTIDKYLNWYQQKPGKAPKLLIYGASRLQNGVPSRFSGSGSGTDFTLTISSLQPEDFATYYCQQSYTTPTFGGGTKVEIKR
